Measured values as given in paper PMC3441668.

Molecular target: Bcl-xL (UniProt Q07817)
Assay: anti-myc co-IP, Bcl-xL immunoblot
Conditions: reference: myc-Rad9 wild type; sites S328

Substance: Rad9 (from UniProt Q99638) myc-Rad9 S328A
- binding against the reference: weaker
